Data on six molecules can be found in patent US20230203158A1 (FLAGSHIP PIONEERING INNOVATIONS VII, published 2023).

Assay [1] has as its target IL-10 receptor of HEK-BLUE IL-10 cells (the cells express all the components of the IL-10 signaling pathway). The assay can be described thus: cell-based or functional assay.
Assay [2] concerns the target T1, DSG1 stably expressed on HEK-BLUE IL-10 cells (called human DSG1; DSG1 gene NP_034209.2) (human, UniProt Q02413 50-1049).
T1 sequence (looked up): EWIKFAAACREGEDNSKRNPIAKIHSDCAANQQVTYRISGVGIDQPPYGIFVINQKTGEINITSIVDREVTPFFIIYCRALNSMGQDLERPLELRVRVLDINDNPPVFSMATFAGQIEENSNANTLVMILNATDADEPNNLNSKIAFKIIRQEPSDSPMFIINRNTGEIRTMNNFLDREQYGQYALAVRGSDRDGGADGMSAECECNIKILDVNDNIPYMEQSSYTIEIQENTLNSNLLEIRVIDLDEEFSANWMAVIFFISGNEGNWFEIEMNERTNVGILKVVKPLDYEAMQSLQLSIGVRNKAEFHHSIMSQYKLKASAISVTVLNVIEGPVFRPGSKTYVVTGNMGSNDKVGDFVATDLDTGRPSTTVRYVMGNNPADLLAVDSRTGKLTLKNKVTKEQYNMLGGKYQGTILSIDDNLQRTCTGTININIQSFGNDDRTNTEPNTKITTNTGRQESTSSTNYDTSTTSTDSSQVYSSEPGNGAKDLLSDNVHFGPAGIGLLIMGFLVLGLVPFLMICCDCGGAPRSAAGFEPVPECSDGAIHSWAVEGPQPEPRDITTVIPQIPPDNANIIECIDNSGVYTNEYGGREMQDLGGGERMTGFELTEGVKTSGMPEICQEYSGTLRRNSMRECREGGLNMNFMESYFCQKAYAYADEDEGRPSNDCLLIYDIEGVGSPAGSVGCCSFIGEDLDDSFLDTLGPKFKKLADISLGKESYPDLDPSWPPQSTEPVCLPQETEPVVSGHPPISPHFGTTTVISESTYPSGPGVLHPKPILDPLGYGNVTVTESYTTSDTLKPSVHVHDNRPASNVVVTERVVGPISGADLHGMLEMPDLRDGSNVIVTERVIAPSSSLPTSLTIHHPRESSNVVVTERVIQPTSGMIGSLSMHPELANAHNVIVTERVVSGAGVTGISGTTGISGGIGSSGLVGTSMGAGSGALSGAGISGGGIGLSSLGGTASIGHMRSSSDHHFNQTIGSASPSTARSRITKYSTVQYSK
Briefly: cell-based or functional assay.

The target of assay [3] is T2, recombinant His-tagged murine RAGE protein (ab276858 from Abcam) (murine, UniProt Q62151 23-342, limits assumed).
T2 construct: also called murine RAGE antigen; not shown: His tag
T2 sequence (Q62151 23-342 limits assumed): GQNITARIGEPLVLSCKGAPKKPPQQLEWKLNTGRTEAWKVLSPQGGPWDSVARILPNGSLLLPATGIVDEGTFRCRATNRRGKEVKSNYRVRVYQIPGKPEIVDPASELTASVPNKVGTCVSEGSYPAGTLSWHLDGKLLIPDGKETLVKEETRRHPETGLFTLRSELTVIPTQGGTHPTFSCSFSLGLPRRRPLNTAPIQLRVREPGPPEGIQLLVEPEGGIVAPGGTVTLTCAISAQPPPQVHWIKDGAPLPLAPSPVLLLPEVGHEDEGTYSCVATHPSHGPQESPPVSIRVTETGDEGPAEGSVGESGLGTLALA
The assay can be described thus: BLI, ANDbody on anti-human IgG Fc biosensors, murine RAGE at 150 nM then murine Notch2 NRR at 150 nM. The procedure: To test simultaneous dual antigen binding of the Notch2/RAGE ANDbodies by BLI, PRO051, PRO052 and PRO053, along with monovalent parental antibody controls were immobilized on anti-human IgG Fc biosensors and dipped into the recombinant His-tagged murine RAGE protein at 150 nM, followed by a second association step into wells containing recombinant murine Notch2 NRR at 150 nM to measure dual antigen binding. The dissociation rate was then measured by dipping the biosensors into buffer.
(In general: BLI is a label-free optical method that tracks binding on a fibre tip over time.)

B1: PRO026 (IL-10/DSG1 ANDbody: monomeric IL-10 replacing one Fab of the anti-DSG1 mAb) (other)
heavy: EVQLVESGGGLVQPGRSLRLSCAASGFTFDDYAMHWVRQAPGKGLEWVSGISWNSGSIDYADSVKGRFTISRDNAKNSLYLQMNSLRVEDTALYYCAKDGSRVFGVGGGFDFWGQGTMVTVSSASTKGPSVFPLAPSSKSTSGGTAALGCLVKDYFPEPVTVSWNSGALTSGVHTFPAVLQSSGLYSLSSVVTVPSSSLGTQTYICNVNHKPSNTKVDKKVEPKSCDKTHTCPPCPAPEAAGGPSVFLFPPKPKDTLMISRTPEVTCVVVDVSHEDPEVKFNWYVDGVEVHNAKTKPREEQYNSTYRVVSVLTVLHQDWLNGKEYKCKVSNKALGAPIEKTISKAKGQPREPQVYTLPPSRDELTKNQVKLTCLVKGFYPSDIAVEWESNGQPENNYKTTPPVLDSDGSFFLYSSLTVDKSRWQQGNVFSCSVMHEALHNHYTQKSLSLSPG
light: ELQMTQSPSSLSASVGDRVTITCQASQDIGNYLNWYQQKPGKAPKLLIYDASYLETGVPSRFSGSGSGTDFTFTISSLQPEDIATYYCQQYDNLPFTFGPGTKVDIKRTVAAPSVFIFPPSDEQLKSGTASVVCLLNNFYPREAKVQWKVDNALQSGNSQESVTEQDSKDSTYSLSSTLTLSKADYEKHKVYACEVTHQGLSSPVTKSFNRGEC
chain: SPGQGTQSENSCTHFPGNLPNMLRDLRDAFSRVKTFFQMKDQLDNLLLKESLLEDFKGYLGCQALSEMIQFYLEEVMPQAENQDPDIKAHVNSLGENLKTLRLRLRRCHRFLPCENGGGSGGKSKAVEQVKNAFNKLQEKGIYKAMSEFDIFINYIEAYMTMKIRNGGGGSGGGGSDKTHTCPPCPAPEAAGGPSVFLFPPKPKDTLMISRTPEVTCVVVDVSHEDPEVKFNWYVDGVEVHNAKTKPREEQYNSTYRVVSVLTVLHQDWLNGKEYKCKVSNKALGAPIEKTISKAKGQPREPQVYTLPPSRDELTKNQVSLTCLVSGFYPSDIAVEWESNGQPENNYKTTPPVLDSDGSFKLYSKLTVDKSRWQQGNVFSCSVMHEALHNHYTQKSLSLSPG
With B1, the “EC50 (pM), HEK-BLUE IL-10 signaling assay (SEAP)” value in assay [1] amounted to 750 pM.

B2: PRO027 (IL-10/DSG1 ANDbody: IL-10 dimer replacing one Fab of the anti-DSG1 mAb) (other)
heavy: EVQLVESGGGLVQPGRSLRLSCAASGFTFDDYAMHWVRQAPGKGLEWVSGISWNSGSIDYADSVKGRFTISRDNAKNSLYLQMNSLRVEDTALYYCAKDGSRVFGVGGGFDFWGQGTMVTVSSASTKGPSVFPLAPSSKSTSGGTAALGCLVKDYFPEPVTVSWNSGALTSGVHTFPAVLQSSGLYSLSSVVTVPSSSLGTQTYICNVNHKPSNTKVDKKVEPKSCDKTHTCPPCPAPEAAGGPSVFLFPPKPKDTLMISRTPEVTCVVVDVSHEDPEVKFNWYVDGVEVHNAKTKPREEQYNSTYRVVSVLTVLHQDWLNGKEYKCKVSNKALGAPIEKTISKAKGQPREPQVYTLPPSRDELTKNQVKLTCLVKGFYPSDIAVEWESNGQPENNYKTTPPVLDSDGSFFLYSSLTVDKSRWQQGNVFSCSVMHEALHNHYTQKSLSLSPG
light: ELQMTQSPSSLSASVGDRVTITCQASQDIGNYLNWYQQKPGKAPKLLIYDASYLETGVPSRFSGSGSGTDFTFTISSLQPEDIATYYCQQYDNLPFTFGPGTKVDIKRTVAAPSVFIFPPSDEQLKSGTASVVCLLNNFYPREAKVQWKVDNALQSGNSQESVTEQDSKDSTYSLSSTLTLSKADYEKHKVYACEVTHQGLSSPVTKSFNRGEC
chain: SPGQGTQSENSCTHFPGNLPNMLRDLRDAFSRVKTFFQMKDQLDNLLLKESLLEDFKGYLGCQALSEMIQFYLEEVMPQAENQDPDIKAHVNSLGENLKTLRLRLRRCHRFLPCENKSKAVEQVKNAFNKLQEKGIYKAMSEFDIFINYIEAYMTMKIRNGGGSGGGSPGQGTQSENSCTHFPGNLPNMLRDLRDAFSRVKTFFQMKDQLDNLLLKESLLEDFKGYLGCQALSEMIQFYLEEVMPQAENQDPDIKAHVNSLGENLKTLRLRLRRCHRFLPCENKSKAVEQVKNAFNKLQEKGIYKAMSEFDIFINYIEAYMTMKIRNGGGGSGGGGSDKTHTCPPCPAPEAAGGPSVFLFPPKPKDTLMISRTPEVTCVVVDVSHEDPEVKFNWYVDGVEVHNAKTKPREEQYNSTYRVVSVLTVLHQDWLNGKEYKCKVSNKALGAPIEKTISKAKGQPREPQVYTLPPSRDELTKNQVSLTCLVSGFYPSDIAVEWESNGQPENNYKTTPPVLDSDGSFKLYSKLTVDKSRWQQGNVFSCSVMHEALHNHYTQKSLSLSPG
Turning to B2, the “EC50 (pM), HEK-BLUE IL-10 signaling assay (SEAP)” value in assay [1] is 19 pM.

B3: PRO058 (IL-10/DSG1 ANDbody in which monomeric IL-10 replaces one Fab of the anti-DSG1 mAb; functionally equivalent to PRO026, with a substitution in the Fc … (other)
heavy: EVQLVESGGGLVQPGRSLRLSCAASGFTFDDYAMHWVRQAPGKGLEWVSGISWNSGSIDYADSVKGRFTISRDNAKNSLYLQMNSLRVEDTALYYCAKDGSRVFGVGGGFDFWGQGTMVTVSSASTKGPSVFPLAPSSKSTSGGTAALGCLVKDYFPEPVTVSWNSGALTSGVHTFPAVLQSSGLYSLSSVVTVPSSSLGTQTYICNVNHKPSNTKVDKKVEPKSCDKTHTCPPCPAPEAAGGPSVFLFPPKPKDTLMISRTPEVTCVVVDVSHEDPEVKFNWYVDGVEVHNAKTKPREEQYNSTYRVVSVLTVLHQDWLNGKEYKCKVSNKALGAPIEKTISKAKGQPREPQVYTLPPSRDELTKNQVKLTCLVKGFYPSDIAVEWESNGQPENNYKTTPPVLDSDGSFFLYSSLTVDKSRWQQGNVFSCSVMHEALHNHYTQKSLSLSPG
light: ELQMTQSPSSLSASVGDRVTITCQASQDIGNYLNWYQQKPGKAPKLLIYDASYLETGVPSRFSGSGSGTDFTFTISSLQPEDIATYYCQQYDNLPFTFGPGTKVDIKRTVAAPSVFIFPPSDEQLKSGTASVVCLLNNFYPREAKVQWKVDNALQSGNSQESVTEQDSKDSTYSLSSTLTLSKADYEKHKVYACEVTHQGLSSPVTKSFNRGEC
chain: SPGQGTQSENSCTHFPGNLPNMLRDLRDAFSRVKTFFQMKDQLDNLLLKESLLEDFKGYLGCQALSEMIQFYLEEVMPQAENQDPDIKAHVNSLGENLKTLRLRLRRCHRFLPCENGGGSGGKSKAVEQVKNAFNKLQEKGIYKAMSEFDIFINYIEAYMTMKIRNGGGGSGGGGSDKTHTCPPCPAPEAAGGPSVFLFPPKPKDTLMISRTPEVTCVVVDVSHEDPEVKFNWYVDGVEVHNAKTKPREEQYNSTYRVVSVLTVLHQDWLNGKEYKCKVSNKALGAPIEKTISKAKGQPREPQVYTLPPSRDELTKNQVSLTCLVSGFYPSDIAVEWESNGQPENNYKTTPPVLDSDGSFKLYSKLTVDKSRWQQGNVFSCSVMHEALHNRFTQKSLSLSPG
As to B3, the “increase in potency of IL-10 signaling (SEAP) on HEK-BLUE IL-10/DSG1 cells against parental HEK-BLUE IL-10 cells” value in assay [2] is about 15 fold.

B4: PRO052 (Notch2/RAGE ANDbody made by controlled Fab arm exchange of PRO035 K409R and PRO002 F405L) (bispecific antibody)
heavy 1: not shown
light 1: DIQMTQSPSSLSASVGDRVTITCRASQSNRRFLAWYQQKPGKAPKLLIYGASSRASGVPSRFSGSGSGTDFTLTISSLQPEDFATYYCQQYYISPLTFGQGTKVEIKRTVAAPSVFIFPPSDEQLKSGTASVVCLLNNFYPREAKVQWKVDNALQSGNSQESVTEQDSKDSTYSLSSTLTLSKADYEKHKVYACEVTHQGLSSPVTKSFNRGEC
heavy 2: not shown
light 2: DIQMTQSPSSLSASVGDRVTITCRASQDVGIYVNWFQQKPGKAPRRLIYRATNLADGVPSRFSGSRSGTDFTLTISSLQPEDFATYYCLEFDEHPLTFGGGTKVEIKRTVAAPSVFIFPPSDEQLKSGTASVVCLLNNFYPREAKVQWKVDNALQSGNSQESVTEQDSKDSTYSLSSTLTLSKADYEKHKVYACEVTHQGLSSPVTKSFNRGEC
notes: copies: 1 + 1 + 1 + 1
On to B4, for which, in assay [3], the binding result is “binds”.

B5: PRO051 (Notch2/RAGE ANDbody made by controlled Fab arm exchange of PRO034 K409R and PRO002 F405L) (bispecific antibody)
heavy 1: not shown
light 1: not shown
heavy 2: not shown
light 2: DIQMTQSPSSLSASVGDRVTITCRASQDVGIYVNWFQQKPGKAPRRLIYRATNLADGVPSRFSGSRSGTDFTLTISSLQPEDFATYYCLEFDEHPLTFGGGTKVEIKRTVAAPSVFIFPPSDEQLKSGTASVVCLLNNFYPREAKVQWKVDNALQSGNSQESVTEQDSKDSTYSLSSTLTLSKADYEKHKVYACEVTHQGLSSPVTKSFNRGEC
notes: copies: 1 + 1 + 1 + 1
As to B5, the binding result in assay [3] was “binds”.

B6: PRO053 (Notch2/RAGE ANDbody made by controlled Fab arm exchange of PRO036 K409R and PRO002 F405L) (bispecific antibody)
heavy 1: not shown
light 1: DIQMTQSPSSLSASVGDRVTITCRASQSVRSFLAWYQQKPGKAPKLLIYRASIRASGVPSRFSGSGSGTDFTLTISSLQPEDFATYYCQQYYISPWTFGQGTKVEIKRTVAAPSVFIFPPSDEQLKSGTASVVCLLNNFYPREAKVQWKVDNALQSGNSQESVTEQDSKDSTYSLSSTLTLSKADYEKHKVYACEVTHQGLSSPVTKSFNRGEC
heavy 2: not shown
light 2: DIQMTQSPSSLSASVGDRVTITCRASQDVGIYVNWFQQKPGKAPRRLIYRATNLADGVPSRFSGSRSGTDFTLTISSLQPEDFATYYCLEFDEHPLTFGGGTKVEIKRTVAAPSVFIFPPSDEQLKSGTASVVCLLNNFYPREAKVQWKVDNALQSGNSQESVTEQDSKDSTYSLSSTLTLSKADYEKHKVYACEVTHQGLSSPVTKSFNRGEC
notes: copies: 1 + 1 + 1 + 1
For B6, the binding result in assay [3] is reported as “binds”.
